Here are results for three molecules from paper PMC7509555, “An In Vitro Study for Evaluating Permeability and Metabolism of Kurarinone” (Evidence-based Complementary and Alternative Medicine : eCAM, 2020).

The term Km denotes the concentration of substrate that gives half-maximal velocity.

Holding throughout (assay type): in vitro ADME, human
In one data set the test system is HLMs. The data set can be described thus: Chemical inhibition study of kurarinone metabolism (P1 formation) in HLMs. The conditions noted are these: kurarinone 20 μM in HLMs.
Substrate in data set [1]: C=C(C)C(CC=C(C)C)Cc1c(O)cc(OC)c2c1O[C@H](c1ccc(O)cc1O)CC2=O
The data set can be described thus: Enzyme kinetics of P1 formation from kurarinone in recombinant CYP1A2. The conditions noted are these: other: recombinant CYP1A2; kurarinone 1–200 μM; 37.0 °C. On the procedure:
(§1) Samples were prepared in a total volume of 200 μL, containing 0.3 mg/mL protein in human liver microsomes or 15 nM protein in recombinant human supersomes, probe substrates or 50 μM kurarinone, 10 mM MgCl2, 10 mM glucose-6-phosphate, and 1 unit/mL of glucose-6-phosphate dehydrogenase. The reactions were activated by adding NADPH following preincubation at 37°C for 5 min. The reactions were maintained at 37°C for 1 h and terminated by adding 200 μL ice-cold acetonitrile. The supernatant (10 μL) collected from the samples that were centrifuged (20,000 g, 20 min, 4°C) was injected into the HPLC system for analysis. Control incubations devoid of NADPH or kurarinone were performed parallelly to ensure that the produced metabolites were NADPH- or kurarinone-dependent.
(§2) Various concentrations of kurarinone (1–200 μM) were incubated with RLMs, MLMs, PLMs, RAMs, CYP1A2, and CYP2D6 to estimate kinetic parameters. The rest of the other conditions remained the same as described in Section 2.3. […] The apparent Km and Vmax values were calculated from nonlinear regression analysis of experimental data according to the Michaelis–Menten equation, and the results were represented graphically by Eadie–Hofstee plots. All incubations were carried out as triplicate independent experiments, and kinetic constants were recorded as mean ± SD.

Substrate in data set [2]: C=C(C)C(CC=C(C)C)Cc1c(O)cc(OC)c2c1O[C@H](c1ccc(O)cc1O)CC2=O
The data set can be described thus: Enzyme kinetics of P1 formation from kurarinone in recombinant CYP2D6. The conditions noted are these: other: recombinant CYP2D6; kurarinone 1–200 μM; 37.0 °C. On the procedure:
as §1, §2

For `Cc1nc2c([nH]1)c(=O)n(C)c(=O)n2Cc1ccco1` [furafylline], in the data set with HLMs, the “effect of selective CYP inhibitor on formation of P1 from kurarinone” value is “remarkably inhibited”.

B1: CYP1A2 (Homo sapiens) (protein)
chain: MALSQSVPFSATELLLASAIFCLVFWVLKGLRPRVPKGLKSPPEPWGWPLLGHVLTLGKNPHLALSRMSQRYGDVLQIRIGSTPVLVLSRLDTIRQALVRQGDDFKGRPDLYTSTLITDGQSLTFSTDSGPVWAARRRLAQNALNTFSIASDPASSSSCYLEEHVSKEAKALISRLQELMAGPGHFDPYNQVVVSVANVIGAMCFGQHFPESSDEMLSLVKNTHEFVETASSGNPLDFFPILRYLPNPALQRFKAFNQRFLWFLQKTVQEHYQDFDKNSVRDITGALFKHSKKGPRASGNLIPQEKIVNLVNDIFGAGFDTVTTAISWSLMYLVTKPEIQRKIQKELDTVIGRERRPRLSDRPQLPYLEAFILETFRHSSFLPFTIPHSTTRDTTLNGFYIPKKCCVFVNQWQVNHDPELWEDPSEFRPERFLTADGTAINKPLSEKMMLFGMGKRRCIGEVLAKWEIFLFLAILLQQLEFSVPPGVKVDLTPIYGLTMKHARCEHVQARLRFSIN
notes: purchased BD Gentest Corp. (Woburn, MA, USA)
B1: in data set [1], the Km was determined as 9.45 ± 2.11 µM and the kcat was 2.45 ± 0.25 μmol·min^−1·nmol^−1 CYP.

B2: CYP2D6 (Homo sapiens) (protein)
chain: MGLEALVPLAVIVAIFLLLVDLMHRRQRWAARYPPGPLPLPGLGNLLHVDFQNTPYCFDQLRRRFGDVFSLQLAWTPVVVLNGLAAVREALVTHGEDTADRPPVPITQILGFGPRSQGVFLARYGPAWREQRRFSVSTLRNLGLGKKSLEQWVTEEAACLCAAFANHSGRPFRPNGLLDKAVSNVIASLTCGRRFEYDDPRFLRLLDLAQEGLKEESGFLREVLNAVPVLLHIPALAGKVLRFQKAFLTQLDELLTEHRMTWDPAQPPRDLTEAFLAEMEKAKGNPESSFNDENLRIVVADLFSAGMVTTSTTLAWGLLLMILHPDVQRRVQQEIDDVIGQVRRPEMGDQAHMPYTTAVIHEVQRFGDIVPLGVTHMTSRDIEVQGFRIPKGTTLITNLSSVLKDEAVWEKPFRFHPEHFLDAQGHFVKPEAFLPFSAGRRACLGEPLARMELFLFFTSLLQHFSFSVPTGQPRPSHHGVFAFLVSPSPYELCAVPR
notes: as for B1
As for B2, in data set [2], the Km came to 13.76 ± 3.09 µM and the kcat was 2.78 ± 0.36 μmol·min^−1·nmol^−1 CYP.
